Experimental data reported in patent publication US20140087995A1 (published 2014).
Numbered stars: 1 amine (or outer) side, 2 acyl side, 3 side chain; on linkers, the order of the positions; unused ones are H or OH. Bridge positions count the residues as written; N and C are the ends. Side chains are listed from the residue outwards. Ends that are not written are not given here. * marks the point of attachment. C20 diacid = O=C(O)CCCCCCCCCCCCCCCCCCC(=O)*; γGlu = O=C(O)[C@H](CCC(=O)[*:2])N[*:1]

T1: rat amylin receptor (rat calcitonin receptor + rat RAMP 3) (rat, UniProt P32214 25-516; Q9JJ73 23-147)
T1 construct: whole, on cells; Membranes prepared from transiently transfected BHK tk'ts 13 cells; also called rAmylin-R; rat amylin 3(a) receptor
T1 sequence (looked up) 1: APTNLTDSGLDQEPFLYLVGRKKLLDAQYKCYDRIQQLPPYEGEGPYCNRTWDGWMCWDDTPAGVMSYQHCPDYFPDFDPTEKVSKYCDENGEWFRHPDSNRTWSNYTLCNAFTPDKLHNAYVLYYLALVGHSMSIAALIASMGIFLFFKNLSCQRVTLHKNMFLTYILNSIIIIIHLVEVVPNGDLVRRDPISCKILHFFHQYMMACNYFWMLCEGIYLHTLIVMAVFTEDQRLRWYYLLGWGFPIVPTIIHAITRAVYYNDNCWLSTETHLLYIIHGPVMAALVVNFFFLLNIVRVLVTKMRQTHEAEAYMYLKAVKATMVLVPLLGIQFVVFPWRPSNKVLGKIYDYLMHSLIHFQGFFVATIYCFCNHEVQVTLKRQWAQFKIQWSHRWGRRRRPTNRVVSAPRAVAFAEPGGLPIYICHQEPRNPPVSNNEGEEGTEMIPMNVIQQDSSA
T1 sequence (looked up) 2: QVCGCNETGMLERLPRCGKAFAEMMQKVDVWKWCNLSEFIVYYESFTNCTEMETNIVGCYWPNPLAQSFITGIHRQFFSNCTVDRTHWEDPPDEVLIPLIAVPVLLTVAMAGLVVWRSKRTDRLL

T2: rat calcitonin receptor (rat, UniProt P32214 25-516)
T2 construct: whole, on cells; Membranes prepared from transiently transfected BHK tk'ts 13 cells; also called rCTR; rat calcitonin (a) receptor
T2 sequence (looked up): T1 sequence (looked up) 1

T3: human calcitonin receptor (human, UniProt P30988 25-474)
T3 construct: whole, on cells; Membranes from stably transfected BHK cells; also called hCTR; hCT
T3 sequence (looked up): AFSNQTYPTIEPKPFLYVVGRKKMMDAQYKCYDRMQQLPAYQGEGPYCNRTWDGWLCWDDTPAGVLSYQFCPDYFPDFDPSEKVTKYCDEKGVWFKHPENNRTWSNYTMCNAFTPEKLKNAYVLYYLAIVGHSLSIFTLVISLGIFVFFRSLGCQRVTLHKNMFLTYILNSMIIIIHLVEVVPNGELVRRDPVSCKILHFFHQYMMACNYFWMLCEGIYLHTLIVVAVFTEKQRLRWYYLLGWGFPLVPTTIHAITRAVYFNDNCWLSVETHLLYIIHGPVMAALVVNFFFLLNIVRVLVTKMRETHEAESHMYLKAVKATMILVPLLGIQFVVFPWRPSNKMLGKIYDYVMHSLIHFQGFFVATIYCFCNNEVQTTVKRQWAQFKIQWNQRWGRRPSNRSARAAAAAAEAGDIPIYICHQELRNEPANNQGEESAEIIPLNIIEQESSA

B1: N^ε1-[(4S)-4-carboxy-4-(19-carboxynonadecanoylamino)butanoyl]-[Glu14,Arg17,Pro21,Pro27,Pro34,Arg35]-h-amylin (peptide)
peptide: K([γGlu-C20 diacid])CNTATCATQRLAEFLRHSSPNFGAIPSSTNVGPRTY-NH2
modifications: disulfide 2-7; N-terminus assumed
SMILES: CC[C@H](C)[C@H](NC(=O)[C@H](C)NC(=O)CNC(=O)[C@H](Cc1ccccc1)NC(=O)[C@H](CC(N)=O)NC(=O)[C@@H]1CCCN1C(=O)[C@H](CO)NC(=O)[C@H](CO)NC(=O)[C@H](Cc1c[nH]cn1)NC(=O)[C@H](CCCNC(=N)N)NC(=O)[C@H](CC(C)C)NC(=O)[C@H](Cc1ccccc1)NC(=O)[C@H](CCC(=O)O)NC(=O)[C@H](C)NC(=O)[C@H](CC(C)C)NC(=O)[C@H](CCCNC(=N)N)NC(=O)[C@H](CCC(N)=O)NC(=O)[C@@H](NC(=O)[C@H](C)NC(=O)[C@@H]1CSSC[C@H](NC(=O)[C@@H](N)CCCCNC(=O)CC[C@H](NC(=O)CCCCCCCCCCCCCCCCCCC(=O)O)C(=O)O)C(=O)N[C@@H](CC(N)=O)C(=O)N[C@@H]([C@@H](C)O)C(=O)N[C@@H](C)C(=O)N[C@@H]([C@@H](C)O)C(=O)N1)[C@@H](C)O)C(=O)N1CCC[C@H]1C(=O)N[C@@H](CO)C(=O)N[C@@H](CO)C(=O)N[C@H](C(=O)N[C@@H](CC(N)=O)C(=O)N[C@H](C(=O)NCC(=O)N1CCC[C@H]1C(=O)N[C@@H](CCCNC(=N)N)C(=O)N[C@H](C(=O)N[C@@H](Cc1ccc(O)cc1)C(N)=O)[C@@H](C)O)C(C)C)[C@@H](C)O
B2: N^ε1-[(4S)-4-carboxy-4-[[(4S)-4-carboxy-4-(19-carboxynonadecanoylamino)butanoyl]amino]butanoyl]-[Glu14,Arg17,Pro21,Pro27,Arg34,Glu35]-h-amylin (peptide)
peptide: K([γGlu-γGlu-C20 diacid])CNTATCATQRLAEFLRHSSPNFGAIPSSTNVGRETY-NH2
modifications: disulfide 2-7; N-terminus assumed
SMILES: CC[C@H](C)[C@H](NC(=O)[C@H](C)NC(=O)CNC(=O)[C@H](Cc1ccccc1)NC(=O)[C@H](CC(N)=O)NC(=O)[C@@H]1CCCN1C(=O)[C@H](CO)NC(=O)[C@H](CO)NC(=O)[C@H](Cc1c[nH]cn1)NC(=O)[C@H](CCCNC(=N)N)NC(=O)[C@H](CC(C)C)NC(=O)[C@H](Cc1ccccc1)NC(=O)[C@H](CCC(=O)O)NC(=O)[C@H](C)NC(=O)[C@H](CC(C)C)NC(=O)[C@H](CCCNC(=N)N)NC(=O)[C@H](CCC(N)=O)NC(=O)[C@@H](NC(=O)[C@H](C)NC(=O)[C@@H]1CSSC[C@H](NC(=O)[C@@H](N)CCCCNC(=O)CC[C@H](NC(=O)CC[C@H](NC(=O)CCCCCCCCCCCCCCCCCCC(=O)O)C(=O)O)C(=O)O)C(=O)N[C@@H](CC(N)=O)C(=O)N[C@@H]([C@@H](C)O)C(=O)N[C@@H](C)C(=O)N[C@@H]([C@@H](C)O)C(=O)N1)[C@@H](C)O)C(=O)N1CCC[C@H]1C(=O)N[C@@H](CO)C(=O)N[C@@H](CO)C(=O)N[C@H](C(=O)N[C@@H](CC(N)=O)C(=O)N[C@H](C(=O)NCC(=O)N[C@@H](CCCNC(=N)N)C(=O)N[C@@H](CCC(=O)O)C(=O)N[C@H](C(=O)N[C@@H](Cc1ccc(O)cc1)C(N)=O)[C@@H](C)O)C(C)C)[C@@H](C)O
B3: N^ε1-[(4S)-4-carboxy-4-[[(4S)-4-carboxy-4-(19-carboxynonadecanoylamino)butanoyl]amino]butanoyl]-[Asp14,Arg17,Pro21,Pro27,Pro34,Glu35]-h-amylin (peptide)
peptide: K([γGlu-γGlu-C20 diacid])CNTATCATQRLADFLRHSSPNFGAIPSSTNVGPETY-NH2
modifications: disulfide 2-7
B4: N^ε1-[(4S)-4-carboxy-4-[[(4S)-4-carboxy-4-(19-carboxynonadecanoylamino)butanoyl]amino]butanoyl]-[Asp14,Arg17,Pro21,Pro27,Pro34,Arg35]-h-amylin (peptide)
peptide: K([γGlu-γGlu-C20 diacid])CNTATCATQRLADFLRHSSPNFGAIPSSTNVGPRTY-NH2
modifications: disulfide 2-7
notes: also called compound 130
B5: N^ε1-[(4S)-4-carboxy-4-[[(4S)-4-carboxy-4-(19-carboxynonadecanoylamino)butanoyl]amino]butanoyl]-[Arg17,Pro21,Pro27,Pro31,Pro34,Arg35]-h-amylin (peptide)
peptide: K([γGlu-γGlu-C20 diacid])CNTATCATQRLANFLRHSSPNFGAIPSSTPVGPRTY-NH2
modifications: disulfide 2-7; N-terminus assumed
SMILES: CC[C@H](C)[C@H](NC(=O)[C@H](C)NC(=O)CNC(=O)[C@H](Cc1ccccc1)NC(=O)[C@H](CC(N)=O)NC(=O)[C@@H]1CCCN1C(=O)[C@H](CO)NC(=O)[C@H](CO)NC(=O)[C@H](Cc1c[nH]cn1)NC(=O)[C@H](CCCNC(=N)N)NC(=O)[C@H](CC(C)C)NC(=O)[C@H](Cc1ccccc1)NC(=O)[C@H](CC(N)=O)NC(=O)[C@H](C)NC(=O)[C@H](CC(C)C)NC(=O)[C@H](CCCNC(=N)N)NC(=O)[C@H](CCC(N)=O)NC(=O)[C@@H](NC(=O)[C@H](C)NC(=O)[C@@H]1CSSC[C@H](NC(=O)[C@@H](N)CCCCNC(=O)CC[C@H](NC(=O)CC[C@H](NC(=O)CCCCCCCCCCCCCCCCCCC(=O)O)C(=O)O)C(=O)O)C(=O)N[C@@H](CC(N)=O)C(=O)N[C@@H]([C@@H](C)O)C(=O)N[C@@H](C)C(=O)N[C@@H]([C@@H](C)O)C(=O)N1)[C@@H](C)O)C(=O)N1CCC[C@H]1C(=O)N[C@@H](CO)C(=O)N[C@@H](CO)C(=O)N[C@H](C(=O)N1CCC[C@H]1C(=O)N[C@H](C(=O)NCC(=O)N1CCC[C@H]1C(=O)N[C@@H](CCCNC(=N)N)C(=O)N[C@H](C(=O)N[C@@H](Cc1ccc(O)cc1)C(N)=O)[C@@H](C)O)C(C)C)[C@@H](C)O
B6: N^ε1-[(4S)-4-carboxy-4-(19-carboxynonadecanoylamino)butanoyl]-[His14,Arg17,Pro21,Pro27,Pro31,Pro34]-h-amylin (peptide)
peptide: K([γGlu-C20 diacid])CNTATCATQRLAHFLRHSSPNFGAIPSSTPVGPNTY-NH2
modifications: disulfide 2-7; N-terminus assumed
SMILES: CC[C@H](C)[C@H](NC(=O)[C@H](C)NC(=O)CNC(=O)[C@H](Cc1ccccc1)NC(=O)[C@H](CC(N)=O)NC(=O)[C@@H]1CCCN1C(=O)[C@H](CO)NC(=O)[C@H](CO)NC(=O)[C@H](Cc1c[nH]cn1)NC(=O)[C@H](CCCNC(=N)N)NC(=O)[C@H](CC(C)C)NC(=O)[C@H](Cc1ccccc1)NC(=O)[C@H](Cc1c[nH]cn1)NC(=O)[C@H](C)NC(=O)[C@H](CC(C)C)NC(=O)[C@H](CCCNC(=N)N)NC(=O)[C@H](CCC(N)=O)NC(=O)[C@@H](NC(=O)[C@H](C)NC(=O)[C@@H]1CSSC[C@H](NC(=O)[C@@H](N)CCCCNC(=O)CC[C@H](NC(=O)CCCCCCCCCCCCCCCCCCC(=O)O)C(=O)O)C(=O)N[C@@H](CC(N)=O)C(=O)N[C@@H]([C@@H](C)O)C(=O)N[C@@H](C)C(=O)N[C@@H]([C@@H](C)O)C(=O)N1)[C@@H](C)O)C(=O)N1CCC[C@H]1C(=O)N[C@@H](CO)C(=O)N[C@@H](CO)C(=O)N[C@H](C(=O)N1CCC[C@H]1C(=O)N[C@H](C(=O)NCC(=O)N1CCC[C@H]1C(=O)N[C@@H](CC(N)=O)C(=O)N[C@H](C(=O)N[C@@H](Cc1ccc(O)cc1)C(N)=O)[C@@H](C)O)C(C)C)[C@@H](C)O
B7: N^ε1-[(4S)-4-carboxy-4-(19-carboxynonadecanoylamino)butanoyl]-[Glu14,Arg17,Pro21,Pro27,Pro34,His35]-h-amylin (peptide)
peptide: K([γGlu-C20 diacid])CNTATCATQRLAEFLRHSSPNFGAIPSSTNVGPHTY-NH2
modifications: disulfide 2-7

Target: T1, rat amylin receptor (rat calcitonin …)
Test: SPA competition vs 125I-rat amylin, membranes (Assay VI)

First: B1
Second: B2
The IC50 of the first is 8.4-fold lower: 0.339 nM for the first, 2.86 nM for the second.

First: B3
Second: B4
The IC50 of the first is 2.9-fold lower: 0.324 nM for the first, 0.93 nM for the second.

Going from B5 to B6, the IC50 falls from 0.381 nM to 0.125 nM (3-fold).

B7 showed an IC50 of 0.104 nM.

Target: T2, rat calcitonin receptor
Test: SPA competition vs 125I-calcitonin, membranes (Assay VIII)

First: B1
Second: B2
The IC50 of the first is 29-fold lower: 15.4 nM for the first, 452 nM for the second.

First: B3
Second: B4
The IC50 of the first is 7-fold lower: 31.9 nM for the first, 223 nM for the second.

First: B5
Second: B6
The IC50 of the first is 5.8-fold higher: 52.4 nM for the first, 9.05 nM for the second. The second is the more potent here.

B7 was tested, and the IC50 was 5.43 nM.

Target: T2, rat calcitonin receptor
Test: ratio of IC50 on rat calcitonin receptor to IC50 on rat amylin receptor

First: B1
Second: B2
The “Ratio rCT/rAmylin binding” value of the first is lower: 45.5 for the first, 158 for the second.

First: B3
Second: B4
The “Ratio rCT/rAmylin binding” value of the first is lower: 98.5 for the first, 240 for the second.

Going from B5 to B6, the “Ratio rCT/rAmylin binding” value falls from 137 to 72.4.

In the case of B7, the “Ratio rCT/rAmylin binding” value is reported as 52.2.

Target: T3, human calcitonin receptor
Test: ratio of IC50 on human calcitonin receptor to IC50 on human amylin receptor
Summary of the method: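 Competition binding by SPA with cell membranes (35 ng/μL) and SPA beads in 50 mM Hepes pH 7.4 with 1 mM CaCl2, 5 mM MgCl2, 0.1% OA and 0.02% Tween20. Incubated 120 min at 25 °C with shaking, then counted.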

First: B1
Second: B2
The “Ratio hCT/hAmylin binding” value of the first is higher: 38.6 for the first, 14.7 for the second.

Going from B3 to B4, the “Ratio hCT/hAmylin binding” value rises from 49.8 to 280.

First: B5
Second: B6
The “Ratio hCT/hAmylin binding” value of the first is higher: 48.6 for the first, 24.8 for the second.

B7 was tested, and the “Ratio hCT/hAmylin binding” value was 21.2.
